For two substances, OD and % Inhibition results are on record in patent US20110014117A1.

The target of experiment [1] is recombinant human soluble IGF1R fragment (R&D Systems) (human). As to the kind of experiment: competitive ELISA on coated sIGF1R fragment, competitor biotinylated 19D12 LCF/HCA; antibody at 1 ug/ml.
The target is the same in experiment [2]. As to the kind of experiment: competitive ELISA on coated sIGF1R fragment, competitor biotinylated 19D12 LCF/HCA; antibody at 2 ug/ml.
Experiment [3] shares this target. The experiment can be described thus: competitive ELISA on coated sIGF1R fragment, competitor biotinylated 19D12 LCF/HCA; antibody at 4 ug/ml.
Experiment [4] shares this target. The experiment can be described thus: competitive ELISA on coated sIGF1R fragment, competitor biotinylated 19D12 LCF/HCA; antibody at 8 ug/ml.
Experiment [5] has the same target. The experiment can be described thus: competitive ELISA on coated sIGF1R fragment, competitor biotinylated 19D12 LCF/HCA; antibody at 0.5 ug/ml.
Experiment [6] shares this target. As to the kind of experiment: competitive ELISA on coated sIGF1R fragment, competitor biotinylated 19D12 LCF/HCA; antibody at 0.25 ug/ml.
For experiment [7] the target is unchanged. As to the kind of experiment: competitive ELISA on coated sIGF1R fragment, competitor biotinylated 19D12 LCF/HCA; antibody at 0.125 ug/ml.
Experiment [8] has the same target. The experiment can be described thus: competitive ELISA on coated sIGF1R fragment, competitor biotinylated 19D12 LCF/HCA; antibody at 0.0625 ug/ml.
The target is the same in experiment [9]. As to the kind of experiment: competitive ELISA on coated sIGF1R fragment, competitor biotinylated 19D12 LCF/HCA; antibody at 0.03125 ug/ml.
Experiment [10] shares this target. As to the kind of experiment: competitive ELISA on coated sIGF1R fragment, competitor biotinylated 19D12 LCF/HCA; antibody at 0.007813 ug/ml.
For experiment [11] the target is unchanged. The experiment can be described thus: competitive ELISA on coated sIGF1R fragment, competitor biotinylated 19D12 LCF/HCA; antibody at 0.015625 ug/ml.
Experiment [12] has the same target. The experiment can be described thus: competitive ELISA on coated sIGF1R fragment, inhibition of biotinylated 19D12 LCF/HCA binding; antibody at 1 ug/ml.
Experiment [13] shares this target. The experiment can be described thus: competitive ELISA on coated sIGF1R fragment, inhibition of biotinylated 19D12 LCF/HCA binding; antibody at 2 ug/ml.
The target is the same in experiment [14]. The experiment can be described thus: competitive ELISA on coated sIGF1R fragment, inhibition of biotinylated 19D12 LCF/HCA binding; antibody at 4 ug/ml.
Experiment [15] has the same target. As to the kind of experiment: competitive ELISA on coated sIGF1R fragment, inhibition of biotinylated 19D12 LCF/HCA binding; antibody at 8 ug/ml.
Experiment [16] shares this target. The experiment can be described thus: competitive ELISA on coated sIGF1R fragment, inhibition of biotinylated 19D12 LCF/HCA binding; antibody at 0.5 ug/ml.
For experiment [17] the target is unchanged. The experiment can be described thus: competitive ELISA on coated sIGF1R fragment, inhibition of biotinylated 19D12 LCF/HCA binding; antibody at 0.25 ug/ml.
Experiment [18] shares this target. The experiment can be described thus: competitive ELISA on coated sIGF1R fragment, inhibition of biotinylated 19D12 LCF/HCA binding; antibody at 0.125 ug/ml.
The target is the same in experiment [19]. The experiment can be described thus: competitive ELISA on coated sIGF1R fragment, inhibition of biotinylated 19D12 LCF/HCA binding; antibody at 0.0625 ug/ml.
For experiment [20] the target is unchanged. As to the kind of experiment: competitive ELISA on coated sIGF1R fragment, inhibition of biotinylated 19D12 LCF/HCA binding; antibody at 0.03125 ug/ml.
The target is the same in experiment [21]. As to the kind of experiment: competitive ELISA on coated sIGF1R fragment, inhibition of biotinylated 19D12 LCF/HCA binding; antibody at 0.007813 ug/ml.
Experiment [22] has the same target. As to the kind of experiment: competitive ELISA on coated sIGF1R fragment, inhibition of biotinylated 19D12 LCF/HCA binding; antibody at 0.015625 ug/ml.

Regarding anti-IGF1R antibody 19D12 LCF/HCA, the OD in experiment [1] is 0.001 OD; in experiment [2], -0.0025 OD; in experiment [3], -0.0025 OD; in experiment [4] it was -0.0045 OD; in [5], 0.021 OD; in experiment [6], 0.169 OD. For the same substance, the OD is 0.443 OD in experiment [7]; 1 OD in [8]; 1.1 OD in [9]; 1.23 OD in experiment [10]; 1.25 OD in [11]. For the same substance, the % Inhibition was found to be 99.9% in experiment [12]; 100% in experiment [13]; 100% in experiment [14]; 100% in experiment [15]; 98.4% in [16]; 86.8% in experiment [17]. In addition, the % Inhibition was 65.3% in experiment [18]; 21.7% in [19]; 13.8% in experiment [20]; 4.05% in experiment [21]; 2.33% in experiment [22].
Consider “commercially available anti-IGF1R antibody MAB391”, for which the OD in [1] worked out at 0.355 OD; in [2], 0.163 OD; in experiment [3], 0.0725 OD; in [4] it was 0.045 OD; in experiment [5], 0.628 OD; in experiment [6], 0.981 OD. Moreover, the OD turned out to be 1.16 OD in experiment [7]; 1.24 OD in [8]; 1.41 OD in experiment [9]; 1.31 OD in [10]; 1.25 OD in [11]. In addition, the % Inhibition in experiment [12] stood at 72.2%; in [13] it was 87.2%; in [14], 94.3%; in experiment [15], 96.5%; in experiment [16], 50.9%; in [17], 23.3%. The % Inhibition is 9.61% in experiment [18]; 2.69% in experiment [19]; -10.1% in experiment [20]; -2.16% in [21]; 1.9% in experiment [22].
